Experimental findings from patent publication US20250152704A1 (PARAGON THERAPEUTICS, published 2025) are described below.

One experiment addresses FcRn-GFP. The experiment can be described thus: cell-based or functional assay.
The target in experiment [1] is T1, human serum albumin (human, UniProt P02768 25-609).
T1 construct: also called HSA
Kind of experiment: SPR (Biacore 8K), Fc fusion captured by anti-human Fc on CM5, HSA as analyte, 25 C, pH 6.0, 1:1 fit. On the procedure:
(§1) Following a stabilization period in running buffer, the Fc fusion molecules at 20 nM were captured onto flow cell 2 (active) for 60 sec at a flow rate of 30 uL/min. […] Samples were injected in a multi-cycle manner over freshly captured Fc fusion molecule, by regenerating the capture surfaces with injection of 10 mM glycine pH 1.5 for 30 sec at a flow rate of 30 μL/min. The data was processed and analyzed with Biacore Insight Evaluation Software Version 2.0.15.12933 (GE Healthcare) as follows. […] The responses from the two buffer blank injections were then subtracted from the reference subtracted data (2-1) to yield double-referenced data, which were fit to a 1:1 binding model to determine the apparent association (ka) and dissociation rate constants (kd). Their ratio provided the apparent equilibrium dissociation constant or affinity constant (KD=kd/ka).
In general terms: In SPR one partner is held on a chip, and binding of the other changes the refractive index at the surface.

In experiment [2] the target is T2, Recombinant in-house Human FcRn protein (human, UniProt P55899 24-297; P61769 21-119, limits assumed).
T2 construct: also called huFCRN; HuFcRn
The experiment can be described thus: SPR (Biacore 8K), Fc fusion captured by anti-human Fc on CM5, huFcRn as analyte, 25 C, pH 6.0, 1:1 fit. The procedure:
as §1

The target of experiment [3] is T1, human serum albumin. The experiment can be described thus: SPR (Biacore 8K), Fc fusion captured by anti-human Fc on CM5, HSA as analyte, 25 C, pH 7.4, 1:1 fit. The procedure: as §1
In experiment [4] the target is T2, Recombinant in-house Human FcRn protein. Kind of experiment: SPR (Biacore 8K), Fc fusion captured by anti-human Fc on CM5, huFcRn as analyte, 25 C, pH 7.4, 1:1 fit. On the procedure: as §1

As a reminder, the Kd is the constant that tells how readily two partners part at equilibrium.

T2 sequence (P55899 24-297 limits assumed, chain 1 of 2): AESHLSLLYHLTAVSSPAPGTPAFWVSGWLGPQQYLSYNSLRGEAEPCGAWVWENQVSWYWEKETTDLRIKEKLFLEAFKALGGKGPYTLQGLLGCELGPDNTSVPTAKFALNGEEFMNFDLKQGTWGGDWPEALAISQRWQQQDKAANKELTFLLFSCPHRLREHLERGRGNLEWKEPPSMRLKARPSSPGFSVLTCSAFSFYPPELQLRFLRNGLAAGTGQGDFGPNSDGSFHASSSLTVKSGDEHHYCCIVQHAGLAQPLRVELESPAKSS
T2 sequence (P61769 21-119 limits assumed, chain 2 of 2): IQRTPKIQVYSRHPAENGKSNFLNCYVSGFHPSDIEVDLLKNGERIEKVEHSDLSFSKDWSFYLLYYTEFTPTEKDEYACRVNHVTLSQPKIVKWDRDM
T1 sequence (P02768 25-609 limits assumed): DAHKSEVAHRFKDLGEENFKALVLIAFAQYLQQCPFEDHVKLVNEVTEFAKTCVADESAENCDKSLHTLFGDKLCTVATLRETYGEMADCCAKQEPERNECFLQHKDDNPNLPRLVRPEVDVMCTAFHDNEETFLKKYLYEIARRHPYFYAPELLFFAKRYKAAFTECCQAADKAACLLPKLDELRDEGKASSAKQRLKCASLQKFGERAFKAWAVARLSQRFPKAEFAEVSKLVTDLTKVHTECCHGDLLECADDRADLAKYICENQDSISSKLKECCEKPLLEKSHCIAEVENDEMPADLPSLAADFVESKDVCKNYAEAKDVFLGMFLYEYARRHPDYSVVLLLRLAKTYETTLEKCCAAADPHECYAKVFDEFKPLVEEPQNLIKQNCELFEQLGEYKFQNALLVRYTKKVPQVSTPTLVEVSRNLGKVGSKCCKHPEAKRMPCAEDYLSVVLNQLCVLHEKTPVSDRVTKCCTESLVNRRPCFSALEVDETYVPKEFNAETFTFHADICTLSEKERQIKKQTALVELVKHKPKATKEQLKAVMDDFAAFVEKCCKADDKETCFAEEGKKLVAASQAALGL

B1: Fc Fusion Molecule 44 (Fc fusion)
chain 1: DKTHTCPPCPAPELLGGPSVFLFPPKPKDTLYITREPEVTCVVVDVSHEDPEVKFNWYVDGVEVHNAKTKPREEQYNSTYRVVSVLTVLHQDWLNGKEYKCKVSNKALPAPIEKTISKAKGQPREPQVCTLPPSRDELTKNQVSLSCAVKGFYPSDIAVEWESNGQPENNYKTTPPVLDSDGSFFLVSKLTVDKSRWQQGNVFSCSVMHEALKYHYTQKSLSLSPGGGGGSGGGGSGGGGSGGGGSGGGGSGGGGSEVQLLESGGGLVQPGGSLRLSCAASGFTFRSAGMSWVRQAPGKGPEWVSSISGSGSDTLYADSVKGRFTISRDNSKNTLYLQMNSLRPEDTAVYYCTIGGSLSRSSQGTLVTVSS
chain 2: DKTHTCPPCPAPELLGGPSVFLFPPKPKDTLYITREPEVTCVVVDVSHEDPEVKFNWYVDGVEVHNAKTKPREEQYNSTYRVVSVLTVLHQDWLNGKEYKCKVSNKALPAPIEKTISKAKGQPREPQVYTLPPCRDELTKNQVSLWCLVKGFYPSDIAVEWESNGQPENNYKTTPPVLDSDGSFFLYSKLTVDKSRWQQGNVFSCSVMHEALKYHYTQKSLSLSPG
Consider B1, for which the “Average (n = 3) Residual FcRn” value with FcRn-GFP came out at 21.

B2: Fc Fusion Molecule 11 (Fc fusion)
chain 1: EVQLLESGGGLVQPGGSLRLSCAASGFTFRSFGMSWVRQAPGKGPEWVSSISGSGSDTLYADSVKGRFTISRDNSKNTLYLQMNSLRPEDTAVYYCTIGGSLSRSSQGTLVTVSSGGGGSGGGGSGGGGSDKTHTCPPCPAPELLGGPSVFLFPPKPKDTLYITREPEVTCVVVDVSHEDPEVKFNWYVDGVEVHNAKTKPREEQYNSTYRVVSVLTVLHQDWLNGKEYKCKVSNKALPAPIEKTISKAKGQPREPQVCTLPPSRDELTKNQVSLSCAVKGFYPSDIAVEWESNGQPENNYKTTPPVLDSDGSFFLVSKLTVDKSRWQQGNVFSCSVMHEALKFHYTQKSLSLSPG
chain 2: DKTHTCPPCPAPELLGGPSVFLFPPKPKDTLYITREPEVTCVVVDVSHEDPEVKFNWYVDGVEVHNAKTKPREEQYNSTYRVVSVLTVLHQDWLNGKEYKCKVSNKALPAPIEKTISKAKGQPREPQVYTLPPCRDELTKNQVSLWCLVKGFYPSDIAVEWESNGQPENNYKTTPPVLDSDGSFFLYSKLTVDKSRWQQGNVFSCSVMHEALKFHYTQKSLSLSPG
notes: also called ABD1-(G4S)3-Efgart(KIH); ABD1-(G4S)3-Efgart(H)/Efgart(K)
In the case of B2, the Kd was determined as 7.26 nM in the experiment with human serum albumin [1], 6.69 nM in experiment [2], 12 nM with human serum albumin [3] and 371 nM in experiment [4].

B3: Fc Fusion Molecule 12 (Fc fusion)
chain 1: DKTHTCPPCPAPELLGGPSVFLFPPKPKDTLYITREPEVTCVVVDVSHEDPEVKFNWYVDGVEVHNAKTKPREEQYNSTYRVVSVLTVLHQDWLNGKEYKCKVSNKALPAPIEKTISKAKGQPREPQVCTLPPSRDELTKNQVSLSCAVKGFYPSDIAVEWESNGQPENNYKTTPPVLDSDGSFFLVSKLTVDKSRWQQGNVFSCSVMHEALKFHYTQKSLSLSPGGGGGSGGGGSGGGGSEVQLLESGGGLVQPGGSLRLSCAASGFTFRSFGMSWVRQAPGKGPEWVSSISGSGSDTLYADSVKGRFTISRDNSKNTLYLQMNSLRPEDTAVYYCTIGGSLSRSSQGTLVTVSS
chain 2: DKTHTCPPCPAPELLGGPSVFLFPPKPKDTLYITREPEVTCVVVDVSHEDPEVKFNWYVDGVEVHNAKTKPREEQYNSTYRVVSVLTVLHQDWLNGKEYKCKVSNKALPAPIEKTISKAKGQPREPQVYTLPPCRDELTKNQVSLWCLVKGFYPSDIAVEWESNGQPENNYKTTPPVLDSDGSFFLYSKLTVDKSRWQQGNVFSCSVMHEALKFHYTQKSLSLSPG
notes: also called Efgart(KIH)-(G4S)3-ABD1; Efgart(H)-(G4S)3-ABD1/Efgart(K)
Take B3: the equilibrium dissociation constant (Kd) with human serum albumin [1] was found to be 33.4 nM; in experiment [2] it was 11.3 nM; with human serum albumin [3] it was 54.6 nM; in experiment [4] it was 492 nM.

B4: Fc Fusion Molecule 46 (Fc fusion)
chain 1: DKTHTCPPCPAPELLGGPSVFLFPPKPKDTLYITREPEVTCVVVDVSHEDPEVKFNWYVDGVEVHNAKTKPREEQYNSTYRVVSVLTVLHQDWLNGKEYKCKVSNKALPAPIEKTISKAKGQPREPQVCTLPPSRDELTKNQVSLSCAVKGFYPSDIAVEWESNGQPENNYKTTPPVLDSDGSFFLVSKLTVDKSRWQQGNVFSCSVMHEALKYHYTQKSLSLSPGGGGGSGGGGSGGGGSGGGGSGGGGSGGGGSGGGGSGGGGSEVQLLESGGGLVQPGGSLRLSCAASGFTFRSAGMSWVRQAPGKGPEWVSSISGSGSDTLYADSVKGRFTISRDNSKNTLYLQMNSLRPEDTAVYYCTIGGSLSRSSQGTLVTVSS
chain 2: DKTHTCPPCPAPELLGGPSVFLFPPKPKDTLYITREPEVTCVVVDVSHEDPEVKFNWYVDGVEVHNAKTKPREEQYNSTYRVVSVLTVLHQDWLNGKEYKCKVSNKALPAPIEKTISKAKGQPREPQVYTLPPCRDELTKNQVSLWCLVKGFYPSDIAVEWESNGQPENNYKTTPPVLDSDGSFFLYSKLTVDKSRWQQGNVFSCSVMHEALKYHYTQKSLSLSPG
As to B4, in the experiment with FcRn-GFP, the “Average (n = 3) Residual FcRn” value stood at 44.

B5: Fc Fusion Molecule 45 (Fc fusion)
chain 1: DKTHTCPPCPAPELLGGPSVFLFPPKPKDTLYITREPEVTCVVVDVSHEDPEVKFNWYVDGVEVHNAKTKPREEQYNSTYRVVSVLTVLHQDWLNGKEYKCKVSNKALPAPIEKTISKAKGQPREPQVCTLPPSRDELTKNQVSLSCAVKGFYPSDIAVEWESNGQPENNYKTTPPVLDSDGSFFLVSKLTVDKSRWQQGNVFSCSVMHEALKYHYTQKSLSLSPGGGGGSGGGGSGGGGSGGGGSGGGGSGGGGSGGGGSEVQLLESGGGLVQPGGSLRLSCAASGFTFRSAGMSWVRQAPGKGPEWVSSISGSGSDTLYADSVKGRFTISRDNSKNTLYLQMNSLRPEDTAVYYCTIGGSLSRSSQGTLVTVSS
chain 2: DKTHTCPPCPAPELLGGPSVFLFPPKPKDTLYITREPEVTCVVVDVSHEDPEVKFNWYVDGVEVHNAKTKPREEQYNSTYRVVSVLTVLHQDWLNGKEYKCKVSNKALPAPIEKTISKAKGQPREPQVYTLPPCRDELTKNQVSLWCLVKGFYPSDIAVEWESNGQPENNYKTTPPVLDSDGSFFLYSKLTVDKSRWQQGNVFSCSVMHEALKYHYTQKSLSLSPG
Take B5: the “Average (n = 3) Residual FcRn” value with FcRn-GFP amounted to 29.

B6: Fc Fusion Molecule 6 (Fc fusion)
chain: DKTHTCPPCPAPELLGGPSVFLFPPKPKDTLYITREPEVTCVVVDVSHEDPEVKFNWYVDGVEVHNAKTKPREEQYNSTYRVVSVLTVLHQDWLNGKEYKCKVSNKALPAPIEKTISKAKGQPREPQVYTLPPSRDELTKNQVSLTCLVKGFYPSDIAVEWESNGQPENNYKTTPPVLDSDGSFFLYSKLTVDKSRWQQGNVFSCSVMHEALKFHYTQKSLSLSPGGGGGSEVQLLESGGGLVQPGGSLRLSCAASGFTFRSFGMSWVRQAPGKGPEWVSSISGSGSDTLYADSVKGRFTISRDNSKNTLYLQMNSLRPEDTAVYYCTIGGSLSRSSQGTLVTVSS
notes: Made in CHO cells; also called Efgart-G4S-ABD1
In the case of B6, the dissociation constant (Kd) was 33.8 nM with human serum albumin [1], 2.1 nM in experiment [2], 45.6 nM with human serum albumin [3] and 634 nM in experiment [4].

B7: Fc Fusion Molecule 5 (Fc fusion)
chain: EVQLLESGGGLVQPGGSLRLSCAASGFTFRSFGMSWVRQAPGKGPEWVSSISGSGSDTLYADSVKGRFTISRDNSKNTLYLQMNSLRPEDTAVYYCTIGGSLSRSSQGTLVTVSSGGGGSDKTHTCPPCPAPELLGGPSVFLFPPKPKDTLYITREPEVTCVVVDVSHEDPEVKFNWYVDGVEVHNAKTKPREEQYNSTYRVVSVLTVLHQDWLNGKEYKCKVSNKALPAPIEKTISKAKGQPREPQVYTLPPSRDELTKNQVSLTCLVKGFYPSDIAVEWESNGQPENNYKTTPPVLDSDGSFFLYSKLTVDKSRWQQGNVFSCSVMHEALKFHYTQKSLSLSPG
notes: Made in CHO cells; also called ABD1-G4S-Efgart
As for B7, the Kd in the experiment with human serum albumin [1] stood at 6.32 nM; in experiment [2], 8.07 nM; in experiment [4], 375 nM.
